Experiment: yeast display, Sf9 membrane polyspecificity reagent, FACS + sequencing; frameworks hold sequencing errors
Summary of the method: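 Galactose induction of a Saccharomyces cerevisiae BJ5465 synthetic nanobody display library ran 36–48 hours. The cells were then stained for 1 hour at 4 °C with 10% biotinylated, detergent-solubilized Sf9 membrane reagent, pulled down on streptavidin microbeads and FACS-sorted into low and high (top ~1%) gates on expression and reagent-binding fluorescence. Labels for polyreactivity follow the gate of origin.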
For “QVQLQESGGRLVQSCGTLRLSCAASGTITVLYKIGRFRQAPGKEREFVASINYGTSTYYADSVKGRFTVSRDSAKNTVYLQMNSLKPEDTAVYYCAAAYRWQDVYRYWVQGTQVTVSS”, the “polyreactivity (PSR sort gate)” value was “low polyreactivity”.
In the case of “QVQLQESGGSLVQAGGSLRLSCSASGNILVLPHGLVSPGAERELVATITGGSITYYADSEKGRFTISRDNAKNTVYLQMNSLKPGDTAVYYCAVINIYHRPHPYWGQGTLVTVSS”, the “polyreactivity (PSR sort gate)” value is reported as “high polyreactivity”.
In the case of “QVQLQESGGVLMQAGGNLRLSFPASGYISTHYDMDWYRQAPGKERELVARIDDGAITNYADSVKGRFTISRDNAKNTVYLQMNSLKPEDTAVYYCAVYYGDDYYHDYWGQGTQVTVSS”, the “polyreactivity (PSR sort gate)” value is reported as “low polyreactivity”.
In the case of “QVQLQESGGVQAGGSLRLSCAASGYISRSDVMGWYRQAPGKERELVATINNGTITYYADSVKGRFTISRDNATNTVYLQMNSLKPEDTAVHYCAVVQSDTDSLYYWGQGTQVTVSS”, the “polyreactivity (PSR sort gate)” value is reported as “low polyreactivity”.
In the case of “QVQLQESGGVQAGGSLRLSSAASSYISRSDVMGWYRQAPGKERELVATINNGTITYYADSVKGRFTISRDNAKNTVYLQMNSLKPEDTAVHYFAVVQSDTDSLYYWGHGTQVTVSS”, the “polyreactivity (PSR sort gate)” value is reported as “low polyreactivity”.
In the case of “QVQLQESGRGLVQAGGSLRLSCAASGSISILQSMGWYRQAPGKERELVAGINWGATTYYADSVKGRLTTSRDYAKNTVYLQMNSLKPEDTAVYYCAVPTYYTYPLLYWGQGTQVTVSS”, the “polyreactivity (PSR sort gate)” value is reported as “low polyreactivity”.
In the case of “QVQLQESGRRPGAAGGSPRISCAASGYIFWVAVMGRYRQAPGKDRELVASIGFGCTTYYADSVKCRFTISRDNAKNSVYLQMISLKPEDTAVYYCAAPHYDWGELDYWGQGTQVPVSS”, the “polyreactivity (PSR sort gate)” value is reported as “low polyreactivity”.
For “QVQLQESGRRPGAAGGSPRMSCAASGNIFWVAVMGRYRQAPGKERELVASIGFGCTTYYADSVKCRFTISRDNAKNTVYLQMISLKPEDTAVYYCAAPHYDWGEIDYWGQGTQVPVSS”, the “polyreactivity (PSR sort gate)” value was “low polyreactivity”.
For “QVQLQESGRRPGAAGGSPRMSCAASGNIFWVAVMGRYRQAPGKERELVASIGFGCTTYYADSVKCRFTISRDNAKNTVYLQMISLKPEDTAVYYCAAPHYDWGELDYWGQGTQVPVSS”, the “polyreactivity (PSR sort gate)” value was “low polyreactivity”.
In the case of “QVQLQESGRRPGAAGGSPRMSCAASGNIFWVAVMGRYRQEPGQERELVASIGFGCTTYYADSVKCRFTISRDNAKNTVYLQMISLKPEDTAVYYCAAPHYDWGELDYWGQGTQVPVSS”, the “polyreactivity (PSR sort gate)” value is reported as “low polyreactivity”.
With “QVQLQESGSGLVQAGGSLRLGCAASGNISDAGYMGWYRQAPGKEREFVAAIAAGSNTNYADSVKGRFTISRDNAKNTVYLQLNSLKPEVTAVFYCAVASYARVQYEYWGQGTQVTVNS” the “polyreactivity (PSR sort gate)” value was “low polyreactivity”.
With “QVQLQESGSGLVQAGGSLRLSCAASGYISLGDNMGWYRQAPGKDREFGATISVGGITYYVDSVKGRFTISRDIAKNTVYLQMNSLTPEDTAVYYCAALEIYYFRYYYWGQGTQVTVSS” the “polyreactivity (PSR sort gate)” value was “low polyreactivity”.
With “QVQLQESGSGLVQAGGSLRLSSAASGNISHYNDMGWYRQAPGKEREPVATINSGSITYYADSVKGRFTISRDNAKNTVYLQMNSLKPEDTAVYYCAVTQHGYFYLDYWGQGTQVTVSS” the “polyreactivity (PSR sort gate)” value was “high polyreactivity”.
For “QVQLQESGVGLVQAGGSLGCAASGNISTRSEMGWYRQAPGKEREFVATINSGGITNYADSVKGRFTISRDNAKNTVYLRMNSLKPEDTAVYYREVYGYFSDPYDYWGQGTQVTVSS”, the “polyreactivity (PSR sort gate)” value was “low polyreactivity”.
With “QVQLQESGVGLVQAGGSLRLSCAASGTIFRISDMGSYRQAPGKEREFVAAITYGANTYYADSGKGRFTISRDNAKNTVYLQMNSLKPEDTAVYYWAVPPVKETILDYWGQGTQVTVSS” the “polyreactivity (PSR sort gate)” value was “low polyreactivity”.
With “QVQLQESRGGLLQAGGSLCLSCAASGNIIFDGDMRWYRQAPGKEREFVAAINPGGSAYYADSVKGRLPLAAITHTVYLQLNSLNPPDTAVYYCAAKLFDVYGYYYWGQGTHVTVSS” the “polyreactivity (PSR sort gate)” value was “low polyreactivity”.
In the case of “QVQLQESRGGLVQAGGSLCLSCAASGTIFIDGDMGWYRQAPGKEREFVAAIKPGGSAYYADSVKGRLPLAAITHTVYLQMNSLKPEDTAVYYCAAKLFDVYGYYYWGQGTQVTLSS”, the “polyreactivity (PSR sort gate)” value is reported as “low polyreactivity”.
With “QVQLQESSGGLVQAGGSLRMSCAASGTIFNFHIMGWYRQAPGKEREFVAAISYGTSTYYADSVKGRFTISRDNAKNTVYLQMNSQKPEDTAVYYCAVFDYLEVYCWYWGQGTQVTVSS” the “polyreactivity (PSR sort gate)” value was “low polyreactivity”.

Reference: the nanobody polyreactivity screen of Harvey et al. (2022)
